From patent US20250313819A1

Target: poly-GA dipeptide repeat protein (human)
Assay: MSD sandwich ELISA on neuron lysate, C9-patient vs KO line

ratio of signal from the C9-patient vs KO line: 2
Substance: anti-GA antibody (MABN889, Millipore)
